B1: TPR t1 (parent)
chain: GACCAAUCUGCCCUCAGAGCUCGAGAACAUCUUCGGAUGCAGAGGAGGCAGGCUUCGGUGGCGCGAUAGCGCCAACGUCCUCAACCUCCAAUGCAUCCCACCACAUGAUGAUGCCUGAAGAGCCUUGGUUUUUUG

Variants of: B1
Experiment: polymerase ribozyme fitness, log enrichment relative to wild type (log ratio); higher = more active; in vitro selection for triplet polymerase activity
Outline: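 Streptavidin-bead capture of gel-excised extended constructs, followed by RT-PCR, closed a single triplicate in vitro selection round. That round began by annealing PCR-built, transcribed mutant libraries of each subunit of a heterodimeric triplet polymerase ribozyme with a biotinylated primer, the partner subunit and triplets, then incubating them frozen at −7 °C. After Illumina sequencing of inputs and outputs, genotypes needed ≥10 input reads and ≥1 read per output. Fitness is the base-2 logarithm of genotype enrichment over wild-type enrichment, using inverse-variance-weighted replicate averages.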

First: GACCAAUCUGCCCUUAGAGCUCGAGAACAUCUUCGGAUGCAGACGAGGCCGGCUUCGGUGUCGCGAUAGCGCCAACGUCCUCAACCUCCAAUGCACCCCACCAUAUGAUGAUGCCUGAAGAGCCUUGGUUUUUUG [C15U G44C A50C G61U U96C C104U]
Second: GACCAAUCUGCCCUUAGAGCUCGAGAACAUCUUCGGAUCCAGAGGAGGCAGGCUUCGGUGGCGCGAUAGCGCCAACGUCCUCAACCUCCAAUGUAUCCCACCACAUGAUGAUGCUUGAAGAGACUUGGUUUUUUU [C15U G39C C94U C115U C123A G135U]
The “polymerase ribozyme fitness (log ratio)” value of the first is higher: -2.29 for the first, -5.48 for the second.

Going from GACCAAUCUGCCCUUAGAGCUCGAGAACAUCUUCGGAUGCAGAGGAGGCAGGCUUCGGUAGCGCGAUAGCGCCAACGUCCUCAACCUCCAAUGCAUCCCACCACAUGAUGAUGCCUGAAGAGCCUUGAUUUUUUG [C15U G60A G128A] to GACCAAUCUGCCCUUAGAGCUCGAGAACAUCUUCGUAUGCAGAGGAGGCAGGCUUCGGUGGCGAGAUAGCGCCAACGUCCUCAACCUCCAAUGCAUCCCACCACAUGAUGAUGCCUGAAGGGCCUUGGUUUUUUG [C15U G36U C64A A121G], the “polymerase ribozyme fitness (log ratio)” value falls from -2.6 to -5.18.

Going from GACCAAUCUGCCCUUAGAGCUCGAGAACAUCUUCGGAUUCAAAGGAGGCAGGCUUCGGUGGCGCGAUAGCGCCAACGUCCUCAUCCUCCAAUGCAUCCCACCACAUGAUGAUGCCUGAAGAGCCUUGGUUUUUUG [C15U G39U G42A A84U] to GACCAAUCUGCCCUUAGAGCUCGAGAACAUCUUCGGAUGCAGAGGAGGCAGGCUUCGGUGGCGCGAUAGCGCCAACAUCCUCAACCGCCAAUGCAUCCCACCACAUGAUGAUGCCUGAAGAGCCAUGGUUUUUUG [C15U G77A U87G U125A], the “polymerase ribozyme fitness (log ratio)” value rises from -4.16 to -2.39.

Compared with GACCAAUCUGCCCUUAGAGCUCGAGAACAUCUUCGGAUGCAGAGGAGGCAGACUUCGGUGGCGCGAUAGCGCCAACGUCCUCAACCUCCAAUGCAUCCCACCACAUGAUGAUGCCUGAAGAGCCUUGGUUUUUUG [C15U G52A], GACCAAUCUGCCCUUAGAGCUCGAGAACAUCUUCGGAUGCAGAGGAGGCAGGCUUCGGUGUCGCGAUAGCGCCAACGUCCUCAACCUCCAGUGCAUCCCACCACAUGAUGAUGCCUGAAGCGCCUAGGUUUUUUG [C15U G61U A91G A121C U126A] is lower in “polymerase ribozyme fitness (log ratio)” value: -1.6 for the first, -4.05 for the second.

Compared with GACCAAUCUGCCCUUAGAGCUCUAGAACAUCUUCGGAUGCAGAGGAAGUAGGCUUCGGUGGUGCAAUAGCGCCAACGUCCUCAACCUCCAAUGCAUCCCACCACAUGAUGCUGCCUGAAGAGCCUUGGUUUUUUG [C15U G23U G47A C49U C62U G65A A111C], GACCAAUCUGCCCUUAGAGCUCGAGAACAUCUUCGGAUGCAGAGGAAGCAGGCUUCGGUGGCGCGAUACCGCCAACGUCCUCAAACUCCAAUGCAUCCCACCACAUGAUGAUGCCUGAUGAGCUUUGGUUUUUUG [C15U G47A G69C C85A A119U C124U] is higher in “polymerase ribozyme fitness (log ratio)” value: -6.66 for the first, -3.68 for the second.

First: GACCAAUCUGCCCUUAGAGCUCGAGAACAUCUUCGGAUGCAGAGCAGGCAGGCUUCGGUGGCGCGAUAGCGCCAACGUCCUCAACCUCCAAUGCAUCCCACCACAUGAUGAUGCCUAAAGAGCCUUGGUUUUUUG [C15U G45C G117A]
Second: GACCAAUCUGCCCUUAGAGCUCGAGAACAUCUUCGGAUACAGAGGAGGCAGGCUUCGGUGGCGCGAUAGCGCCAACGUCCUCAACCUCCAAUGCAUCUCACCACAUGAUGAUGCCUGAAGAGCCUUGGUUUUUUG [C15U G39A C98U]
The “polymerase ribozyme fitness (log ratio)” value of the first is higher: -1.11 for the first, -3.87 for the second.

Going from GACCAAUCUGCCCUUAGAGCUCGAGAACAUCUUCGGAUGCAGAGGAGUCAGGCUUCGGUGGCGCGAUAGCGCCAACGUCCUCAACCUCCAAUGCAUCCCACCCCAUGAUGAUGCCUGAAGAGGCUUGGUUUUUUG [C15U G48U A103C C123G] to GACCAAUCUGCCCUUAGAGCUCGAGAACAUCUUCGGAUGCAGAGGAGGCAGGCUUCGGUGGCGCGAUAGCGCCAACGUCCUCAACCUCCAAUUCAUCCCACCACAUGAUGAUGCCUGAAGAGCCUUGGUUUUUUG [C15U G93U], the “polymerase ribozyme fitness (log ratio)” value rises from -6.34 to -2.38.

First: GACCAAUCUGCCCUUAGAGCUCCAGAUCAUCUUCGGAUGCAGAGCAGGCAGGCUUCGGUGGCGCGAUAGCGCCAACGUCCUCAACCUCCAAUGCAUCCCACCACAUGAUGAUCCCUGAAGAGCCUUGGUUUUUUG [C15U G23C A27U G45C G113C]
Second: GACCAAUCUGCCCUUAGAGCUCGAGAACAUCUUCGGAUGCAGAGGAGGCAGGCUUCGGUUGCGCGAUAGCGCCAACGUCCUCAACCUCCAAUGCAUCCCACCACAUGAUGAUGCCUGAAGAGUCUUGGUUUUUUG [C15U G60U C123U]
The “polymerase ribozyme fitness (log ratio)” value of the first is lower: -6.21 for the first, -0.514 for the second.

First: GACCAAUCUGCCCUUAGAGCUCGAGAACAUCUUCGGAUGCAGAGGAGGCAGGCUUCGGUAGCGCGAUAGCGCCAACGUCCUCAACCUCCACUGCAUCCCACCACAUGAUGAUGCCUGAAGAGCCUUGGUUUUUUG [C15U G60A A91C]
Second: GACCAAUCUGCCCUUAGAGCUCGAGAACAUCUUCGCAUGCAGAGGAGGCCGGCUUCGGUGGCGCGAUAGCGUCAACGUCCUCAACCUCCAAUGCAUCCCACCACAUGAUGAUGCCUGAAGAGCGUUGGUUUUUUG [C15U G36C A50C C72U C124G]
The “polymerase ribozyme fitness (log ratio)” value of the first is lower: -2.6 for the first, -0.154 for the second.

First: GACCAAUCUGCCCUUAGAGCUCGAGAACAUCUUCGGAUGCAGAGGAGGCAGGCUUCGGUCGCGCGAUAGCGCCAACGUCCUCAACCUCCAAUGCAUCCCACCACAUGAUGAUGCCUAAAGAGCCUUGGUUUUUUG [C15U G60C G117A]
Second: GACCAAUCUGCCCUUAGAGCUCGAGAACAUCUUCGGAUGCAGAAGAGGCAGGCUUAGGUGGAGCGAUAGCCCCAACGUCCUCAACCUCCAAUGCAUCCCACCACAUGAUGAUGCCUGAAGAGCCUUGGUUAUUUG [C15U G44A C56A C62A G71C U131A]
The “polymerase ribozyme fitness (log ratio)” value of the first is higher: 0.583 for the first, -3.4 for the second.

With GACCAAUCUGCCCUUAGAGCUCGAGAACAUCUUCGGAUGCAGAGGAGGCAGGCUUCGGUGGCGCGAUAGCGCCAACGUCCUCAACCUCCAAUGCAUCCCACCACAUGAUAAUGCCUGAAGAGCCUUGGUUUUUUG [C15U G110A] the “polymerase ribozyme fitness (log ratio)” value was -2.25.

From the RNAGym collection of RNA variant scans (doi:10.1073/pnas.2313332121)
